# Laboratory results: IntAct's records for PubMed 39009827
# B1: Fanconi anemia group A protein (Homo sapiens), O15360 (parent)
# chain: MSDSWVPNSASGQDPGGRRRAWAELLAGRVKREKYNPERAQKLKESAVRLLRSHQDLNALLLEVEGPLCKKLSLSKVIDCDSSEAYANHSSSFIGSALQDQASRLGVPVGILSAGMVASSVGQICTAPAETSHPVLLTVEQRKKLSSLLEFAQYLLAHSMFSRLSFCQELWKIQSSLLLEAVWHLHVQGIVSLQELLESHPDMHAVGSWLFRNLCCLCEQMEASCQHADVARAMLSDFVQMFVLRGFQKNSDLRRTVEPEKMPQVTVDVLQRMLIFALDALAAGVQEESSTHKIVRCWFGVFSGHTLGSVISTDPLKRFFSHTLTQILTHSPVLKASDAVQMQREWSFARTHPLLTSLYRRLFVMLSAEELVGHLQEVLETQEVHWQRVLSFVSALVVCFPEAQQLLEDWVARLMAQAFESCQLDSMVTAFLVVRQAALEGPSAFLSYADWFKASFGSTRGYHGCSKKALVFLFTFLSELVPFESPRYLQVHILHPPLVPGKYRSLLTDYISLAKTRLADLKVSIENMGLYEDLSSAGDITEPHSQALQDVEKAIMVFEHTGNIPVTVMEASIFRRPYYVSHFLPALLTPRVLPKVPDSRVAFIESLKRADKIPPSLYSTYCQACSAAEEKPEDAALGVRAEPNSAEEPLGQLTAALGELRASMTDPSQRDVISAQVAVISERLRAVLGHNEDDSSVEISKIQLSINTPRLEPREHMAVDLLLTSFCQNLMAASSVAPPERQGPWAALFVRTMCGRVLPAVLTRLCQLLRHQGPSLSAPHVLGLAALAVHLGESRSALPEVDVGPPAPGAGLPVPALFDSLLTCRTRDSLFFCLKFCTAAISYSLCKFSSQSRDTLCSCLSPGLIKKFQFLMFRLFSEARQPLSEEDVASLSWRPLHLPSADWQRAALSLWTHRTFREVLKEEDVHLTYQDWLHLELEIQPEADALSDTERQDFHQWAIHEHFLPESSASGGCDGDLQAACTILVNALMDFHQSSRSYDHSENSDLVFGGRTGNEDIISRLQEMVADLELQQDLIVPLGHTPSQEHFLFEIFRRRLQALTSGWSVAASLQRQRELLMYKRILLRLPSSVLCGSSFQAEQPITARCEQFFHLVNSEMRNFCSHGGALTQDITAHFFRGLLNACLRSRDPSLMVDFILAKCQTKCPLILTSALVWWPSLEPVLLCRWRRHCQSPLPRELQKLQEGRQFASDFLSPEAASPAPNPDWLSAAALHFAIQQVREENIRKQLKKLDCEREELLVFLFFFSLMGLLSSHLTSNSTTDLPKAFHVCAAILECLEKRKISWLALFQLTESDLRLGRLLLRVAPDQHTRLLPFAFYSLLSYFHEDAAIREEAFLHVAVDMYLKLVQLFVAGDTSTVSPPAGRSLELKGQGNPVELITKARLFLLQLIPRCPKKSFSHVAELLADRGDCDPEVSAALQSRQQAAPDADLSQEPHLF
# B2: BCL11 transcription factor A (Homo sapiens), Q9H165 (parent)
# chain: MSRRKQGKPQHLSKREFSPEPLEAILTDDEPDHGPLGAPEGDHDLLTCGQCQMNFPLGDILIFIEHKRKQCNGSLCLEKAVDKPPSPSPIEMKKASNPVEVGIQVTPEDDDCLSTSSRGICPKQEHIADKLLHWRGLSSPRSAHGALIPTPGMSAEYAPQGICKDEPSSYTCTTCKQPFTSAWFLLQHAQNTHGLRIYLESEHGSPLTPRVGIPSGLGAECPSQPPLHGIHIADNNPFNLLRIPGSVSREASGLAEGRFPPTPPLFSPPPRHHLDPHRIERLGAEEMALATHHPSAFDRVLRLNPMAMEPPAMDFSRRLRELAGNTSSPPLSPGRPSPMQRLLQPFQPGSKPPFLATPPLPPLQSAPPPSQPPVKSKSCEFCGKTFKFQSNLVVHRRSHTGEKPYKCNLCDHACTQASKLKRHMKTHMHKSSPMTVKSDDGLSTASSPEPGTSDLVGSASSALKSVVAKFKSENDPNLIPENGDEEEEEDDEEEEEEEEEEEEELTESERVDYGFGLSLEAARHHENSSRGAVVGVGDESRALPDVMQGMVLSSMQHFSEAFHQVLGEKHKRGHLAEAEGHRDTCDEDSVAGESDRIDDGTVNGRGCSPGESASGGLSKKLLLGSPSSLSPFSKRIKLEKEFDLPPAAMPNTENVYSQWLAGYAASRQLKDPFLSFGDSRQSPFASSSEHSSENGSLRFSTPPGELDGGISGRSGTGSGGSTPHISGPGPGRPSSKEGRRSDTCEYCGKVFKNCSNLTVHRRSHTGERPYKCELCNYACAQSSKLTRHMKTHGQVGKDVYKCEICKMPFSVYSTLEKHMKKWHSDRVLNNDIKTE
# B3: Microphthalmia-associated transcription factor (Homo sapiens), O75030 (parent)
# chain: MQSESGIVPDFEVGEEFHEEPKTYYELKSQPLKSSSSAEHPGASKPPISSSSMTSRILLRQQLMREQMQEQERREQQQKLQAAQFMQQRVPVSQTPAINVSVPTTLPSATQVPMEVLKVQTHLENPTKYHIQQAQRQQVKQYLSTTLANKHANQVLSLPCPNQPGDHVMPPVPGSSAPNSPMAMLTLNSNCEKEGFYKFEEQNRAESECPGMNTHSRASCMQMDDVIDDIISLESSYNEEILGLMDPALQMANTLPVSGNLIDLYGNQGLPPPGLTISNSCPANLPNIKRELTACIFPTESEARALAKERQKKDNHNLIERRRRFNINDRIKELGTLIPKSNDPDMRWNKGTILKASVDYIRKLQREQQRAKELENRQKKLEHANRHLLLRIQELEMQARAHGLSLIPSTGLCSPDLVNRIIKQEPVLENCSQDLLQHHADLTCTTTLDLTDGTITFNNNLGTGTEANQAYSVPTKMGSKLEDILMDDTLSPVGVTDPLLSSVSPGASKTSSRRSSMSMEETEHTC
# Variants of: B1
# Settings: with cskp_human CASK
row,Variant,effect of a mutation on the interaction
1,S4L,causing an interaction

# Variants of: B2
# Settings: with clh1_human CLTC
# Target sequence in this assay (Q00610 whole entry): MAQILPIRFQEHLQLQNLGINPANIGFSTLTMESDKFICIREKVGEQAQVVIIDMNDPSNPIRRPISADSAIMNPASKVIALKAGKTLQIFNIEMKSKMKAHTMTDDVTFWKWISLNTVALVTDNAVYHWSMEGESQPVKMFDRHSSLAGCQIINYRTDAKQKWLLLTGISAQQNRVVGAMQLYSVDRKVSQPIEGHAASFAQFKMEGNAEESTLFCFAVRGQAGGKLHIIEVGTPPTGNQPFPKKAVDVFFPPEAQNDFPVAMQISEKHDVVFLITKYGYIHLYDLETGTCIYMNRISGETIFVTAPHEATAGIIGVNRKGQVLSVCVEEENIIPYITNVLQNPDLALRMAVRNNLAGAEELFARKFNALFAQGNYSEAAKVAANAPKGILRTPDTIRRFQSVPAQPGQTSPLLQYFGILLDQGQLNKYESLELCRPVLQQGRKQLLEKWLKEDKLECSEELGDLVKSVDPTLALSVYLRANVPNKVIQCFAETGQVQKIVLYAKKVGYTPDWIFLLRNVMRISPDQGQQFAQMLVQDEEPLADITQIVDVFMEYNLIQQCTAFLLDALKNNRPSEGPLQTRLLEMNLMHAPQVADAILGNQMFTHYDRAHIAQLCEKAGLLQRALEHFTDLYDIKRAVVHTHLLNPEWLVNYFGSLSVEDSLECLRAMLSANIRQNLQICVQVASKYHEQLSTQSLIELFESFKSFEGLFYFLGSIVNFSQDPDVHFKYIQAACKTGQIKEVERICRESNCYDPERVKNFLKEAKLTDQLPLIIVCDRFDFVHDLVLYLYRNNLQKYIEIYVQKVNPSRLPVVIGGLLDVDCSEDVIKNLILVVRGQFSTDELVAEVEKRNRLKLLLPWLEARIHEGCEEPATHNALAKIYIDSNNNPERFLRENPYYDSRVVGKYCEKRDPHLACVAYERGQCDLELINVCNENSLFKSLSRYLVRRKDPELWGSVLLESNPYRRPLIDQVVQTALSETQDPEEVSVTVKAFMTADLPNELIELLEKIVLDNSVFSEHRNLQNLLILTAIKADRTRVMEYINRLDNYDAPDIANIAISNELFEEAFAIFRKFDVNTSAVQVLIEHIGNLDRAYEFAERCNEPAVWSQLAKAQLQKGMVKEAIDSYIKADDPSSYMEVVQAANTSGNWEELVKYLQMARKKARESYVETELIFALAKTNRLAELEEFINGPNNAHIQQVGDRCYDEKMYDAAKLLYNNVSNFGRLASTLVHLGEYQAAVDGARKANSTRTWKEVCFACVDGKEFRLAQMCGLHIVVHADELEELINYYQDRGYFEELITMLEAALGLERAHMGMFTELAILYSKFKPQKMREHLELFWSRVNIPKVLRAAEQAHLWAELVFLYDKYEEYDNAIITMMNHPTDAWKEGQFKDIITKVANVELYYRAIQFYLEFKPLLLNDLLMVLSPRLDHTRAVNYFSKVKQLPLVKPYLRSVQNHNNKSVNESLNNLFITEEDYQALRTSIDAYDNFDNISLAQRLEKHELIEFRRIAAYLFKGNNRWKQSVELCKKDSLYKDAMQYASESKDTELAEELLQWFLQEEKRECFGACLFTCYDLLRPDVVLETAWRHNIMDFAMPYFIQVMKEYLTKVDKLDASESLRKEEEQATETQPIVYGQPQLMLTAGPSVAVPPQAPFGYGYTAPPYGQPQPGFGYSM
row,Variant,effect of a mutation on the interaction
1,C48F,increasing interaction strength

# Variants of: B3
# Settings: with clh1_human CLTC
# Target sequence in this assay (Q00610 whole entry): as above
row,Variant,effect of a mutation on the interaction
1,MQSESGIVPDFEVGEEFHEEPKTYYELKSQPLKSSSSAEHPGASKPPISSSSMTSRILLRQQLMREQMQEQERREQQQKLQAAQFMQQRVPVSQTPAINVSVPTTLPSATQVPMEVLKVQTHLENPTKYHIQQAQRQQVKQYLSTTLANKHANQVLSLPCPNQPGDHVMPPVPGSSAPNSPMAMLTLNSNCEKEGFYKFEEQNRAESECPGMNTHSRASCMQMDDVIDDIISLESSYNEEILGLMDPALQMANTLPVSGNLIDLCGNQGLPPPGLTISNSCPANLPNIKRELTACIFPTESEARALAKERQKKDNHNLIERRRRFNINDRIKELGTLIPKSNDPDMRWNKGTILKASVDYIRKLQREQQRAKELENRQKKLEHANRHLLLRIQELEMQARAHGLSLIPSTGLCSPDLVNRIIKQEPVLENCSQDLLQHHADLTCTTTLDLTDGTITFNNNLGTGTEANQAYSVPTKMGSKLEDILMDDTLSPVGVTDPLLSSVSPGASKTSSRRSSMSMEETEHTC [Y265C],with no effect
